Reference: US20110076265A1 (POMONA RICERCA S R L, published 2011)

Target: T1, HA protein (H1-subtype hemagglutinin) of influenza A virus A/California/04/2009 (influenza A virus A/California/04/2009 …, UniProt P26140 18-566)
T1 construct: also called H1 HA (A/California/04/2009)
Test: FACS on fixed HEK 293T cells transfected with HA construct, Fab49 at 10 µg/ml

B1: Fab49 (human monoclonal Fab fragment produced by bacterial clone INF49) (Fab, V domains shown)
VH: LESGGGLVQPGGSLRLSCAASGITFSSYAMSWVRQAPGKGLEWVSTVNSGGGSTYYGDSVRGRFTISRDNSKSTLYLQLNSLRAEDTAIYYCAKDKGRPIFGLVTPSYYMDVWGNGT
VL: ELTQSPSSLSASVGDSVTITCRTSERISTYLNWYQQKPGKAPRLLVSGASTLQGGVPSRFSGSGSGTAFTLTINSLQPEDFATYYCQQSYSTPLTFGGGT
binding result: binds
